Laboratory results published in patent publication US20210155689A1 (SHANGHAI PHARMAEXPLORER, published 2021).

Experiments:
[1] = target: T1, monkey LAG-3 on cells (HEK293-cLAG-3 stable cell line) (monkey, UniProt P18627 24-525 (human entry)); assay: FACS, HEK293-cLAG-3, antibody 40.000 nM
T1 construct: Full-length monkey (Chinese monkey) LAG-3 gene expressed on HEK293 cells
T1 chain: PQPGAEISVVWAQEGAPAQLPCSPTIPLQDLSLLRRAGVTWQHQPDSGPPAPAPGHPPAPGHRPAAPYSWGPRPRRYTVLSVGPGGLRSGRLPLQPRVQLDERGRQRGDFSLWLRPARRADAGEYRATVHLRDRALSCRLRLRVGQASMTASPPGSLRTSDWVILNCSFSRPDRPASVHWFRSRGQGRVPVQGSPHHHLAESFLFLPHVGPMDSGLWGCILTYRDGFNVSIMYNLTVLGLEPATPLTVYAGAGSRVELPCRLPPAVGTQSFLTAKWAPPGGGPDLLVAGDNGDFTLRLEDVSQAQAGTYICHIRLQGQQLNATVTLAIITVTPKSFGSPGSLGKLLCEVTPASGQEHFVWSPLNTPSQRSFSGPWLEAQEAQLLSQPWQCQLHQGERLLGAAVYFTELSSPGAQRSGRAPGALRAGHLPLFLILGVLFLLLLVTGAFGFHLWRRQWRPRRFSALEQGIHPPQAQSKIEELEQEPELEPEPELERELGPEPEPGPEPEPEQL
From the text: (§1) The pIRES plasmid with the monkey-derived full-length gene was transfected into the HEK293 cell line to construct a HEK293 stable cell line containing monkey LAG-3 (herein referred to as HEK293-cLAG-3 stable cell line). The HEK293-hLAG-3 stable cell line and HEK293-cLAG-3 stable cell line were expanded in a T-75 cell culture flask to a 90% confluence. The medium was aspirated, and the cells were washed with HBSS (Hanks' Balanced Salt Solution) 1-2 times, then treated with a enzyme-free cell dissociation fluid (Versene solution: Life technology) and the cells were collected. The cells were washed with HBSS buffer for 1-2 times. After counted, the cells were diluted with HBSS to 1-2×10⁶ cells per ml, added with 1% goat serum blocking solution, incubated on ice for 20-30 minutes, and then washed with HBSS for 2 times by centrifugation. The collected cells were suspended in the FACS buffer (HBSS+1% BSA) to 2×10⁶ cells/ml, added as 100 microliters per well to a 96-well FACS reaction plate, added with 100 microliters per well of the antibody sample to be tested, incubated on ice for 1-2 hours. The plate was washed twice with the FACS buffer by centrifugation, added with 100 microliters of fluorescent (Alexa 488)-labeled secondary antibodies per well, and incubated on ice for 0.5-1.0 hours. The plate was washed 2-3 times with FACS buffer by centrifugation, added with 100 μl fixative solution (4% Paraformaldehyde) per well to suspend the cells. 5-10 minutes later, it was washed 1-2 times with FACS buffer by centrifugation. The cells were suspended with 100 microliters of FACS buffer, FACS (FACSCalibur, BD) was used for detection and the results were analyzed.

[2] = target: T2, human LAG-3 on cells (HEK293-hLAG-3 stable cell line) (human, UniProt P18627 23-525); assay: FACS, HEK293-hLAG-3, antibody 0.000 nM
T2 sequence: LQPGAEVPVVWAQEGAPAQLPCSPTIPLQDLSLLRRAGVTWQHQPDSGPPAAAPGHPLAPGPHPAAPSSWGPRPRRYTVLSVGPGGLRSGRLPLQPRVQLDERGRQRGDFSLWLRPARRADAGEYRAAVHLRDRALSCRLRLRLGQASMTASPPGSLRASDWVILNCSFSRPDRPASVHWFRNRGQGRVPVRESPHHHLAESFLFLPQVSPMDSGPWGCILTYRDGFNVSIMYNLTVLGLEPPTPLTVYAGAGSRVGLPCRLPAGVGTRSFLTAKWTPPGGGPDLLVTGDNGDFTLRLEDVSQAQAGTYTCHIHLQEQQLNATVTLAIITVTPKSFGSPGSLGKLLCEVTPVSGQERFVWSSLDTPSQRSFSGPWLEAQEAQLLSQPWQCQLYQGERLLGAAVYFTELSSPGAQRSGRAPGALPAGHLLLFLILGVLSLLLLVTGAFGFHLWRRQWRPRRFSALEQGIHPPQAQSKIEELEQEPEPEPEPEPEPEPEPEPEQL
From the text: as §1

[3] = target: T3, LAG-3-hFc protein (human LAG-3 extracellular region with hFc tag) (human, UniProt P18627 23-450); assay: FACS, inhibition of LAG-3-hFc binding to MHC II on Raji cells, antibody 0.274 nM
T3 construct: also called hLAG-3-hFc; LAG-3 protein; not shown: human IgG Fc fragment (hFc) of the pCpC vector
T3 sequence: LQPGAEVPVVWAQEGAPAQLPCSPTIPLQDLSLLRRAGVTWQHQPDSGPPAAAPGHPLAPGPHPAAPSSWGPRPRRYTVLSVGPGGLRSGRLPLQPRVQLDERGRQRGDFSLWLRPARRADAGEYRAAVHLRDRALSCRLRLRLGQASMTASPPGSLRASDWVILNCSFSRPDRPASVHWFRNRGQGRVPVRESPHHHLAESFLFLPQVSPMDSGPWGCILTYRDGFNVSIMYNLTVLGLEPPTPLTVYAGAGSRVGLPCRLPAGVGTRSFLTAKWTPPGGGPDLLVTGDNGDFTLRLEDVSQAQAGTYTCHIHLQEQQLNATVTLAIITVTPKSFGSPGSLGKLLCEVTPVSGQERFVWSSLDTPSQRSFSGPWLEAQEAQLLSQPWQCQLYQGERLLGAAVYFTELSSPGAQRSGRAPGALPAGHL
Procedure: The FACS reaction plate incubating the Raji cells was centrifuged to discard the supernatant. The above mixture was added as 100 μl per well to Raji cells and incubated on ice for 1-2 hours. The plate was washed twice with blocking solution (PBS, 2% fetal bovine serum) by centrifugation, added with 100 microliters of fluorescent (Alexa 488)-labeled secondary antibodies per well, and incubated on ice for 1.0 hours. The plate was washed 2-3 times by centrifugation with blocking solution (PBS, 2% fetal bovine serum), added with 100 microliters of PBS per well to suspend cells, and detected using FACS (FACS Calibur, BD) and the results were analyzed. Wherein, the IgG control was murine IgG, and the data in the table is the inhibition rate (%).

[4] = target: T2, human LAG-3 on cells (HEK293-hLAG-3 …); assay: FACS, HEK293-hLAG-3, antibody 0.013 nM
From the text: as §1

B1: 105F1E10 mouse-human chimeric antibody (antibody, V domains shown)
VH: EVQLQQSGPELVKPGASVKMSCRASGYTFTDFKMHWMKQSHGKSLEWIGYIAPNNGGTAYNQKFRGKATLTVNESSNTAYMELRSLTSEDSAVYYCVDWDDVDYWGQGTTLTVSS
VL: DIKMTQSPSSMYASLGERVTITCKASQDINSYLSWFQQKSGKSPKTLIYRANRLVDGVPSRFSGSGSGQDYSLTISSLEYEDMGIYYCLQYVEFPLTFGAGTKLELK
notes: also called mAb009-105F1E10
Mean fluorescence intensity [1]: 64.6
Mean fluorescence intensity [2]: 2.6
Inhibition rate (%) [3]: -10.1%
Mean fluorescence intensity [4]: 3.6

B2: 405B8H3 mouse-human chimeric antibody (antibody, V domains shown)
VH: QVQLQQSGAELVRPGASVTLSCKASGYTFTDYEMHWVKQTPVHGLEWIGATDPETGNSAYNQKFKGKAIMTADKSSSTAYMELRSLTSEDSAVYYCISTGWNDWGQGTSLTVSS
VL: DIKMTQSPSSMYASLGERVTITCKASQDINSYLSWFQQKPGKSPKTLIYRADRLLDGVPSRFSGSGSGQDYSLTISSLEYGDMGIYYCLQYDEFPYTFGGGTKLEIK
notes: also called mAb103-405B8H3
Mean fluorescence intensity [1]: 90.8
Mean fluorescence intensity [2]: 2.8
Inhibition rate (%) [3]: 4.3%
Mean fluorescence intensity [4]: 4

B3: 409D4E10 mouse-human chimeric antibody (antibody, V domains shown)
VH: QVQLQQSGAELVRPGASVTLSCKASGNTFTDYEMHWVKQTPVHGLEWIGATDPETDNTAYNQKFKGKAILTTDKSSSTAYMELRSLTSEDSAVYYCITSGWNDWGQGTSLTVSS
VL: DIKMTQSPSSMYASLGERVTITCKASQDINSYLSWFQQKPGKSPKTLIYRANRLLDGVPSRFSGSGSGQDYSLTISSLEYEDMGIYYCLQYNEFPYTFGGGTKLEIK
notes: also called mAb112-409D4E10
Mean fluorescence intensity [1]: 93.4
Mean fluorescence intensity [2]: 3
Inhibition rate (%) [3]: 11.3%
Mean fluorescence intensity [4]: 4

B4: 409B11E12 mouse-human chimeric antibody (antibody, V domains shown)
VH: QVQLQQSGAELVRPGASVTLSCKASGYTFTDYEMHWVKQTTVHGLEWIGATDPETSYSAYNQKFKGKAILTADKSSSTAYMELRSLTSEDSAVYYCIATGWNDWGQGTSLTVSS
VL: DLKMTQSPSSMYASLGERVTITCKASQDINSYLSWFQQKPGKSPKTLIYRANRLLDGVPSRFSGSGSGQDYSLTISSLEYEDMGIYYCLQYDEFPYTFGGGTKLEIK
notes: also called mAb104-409B11E12
Mean fluorescence intensity [1]: 108
Mean fluorescence intensity [2]: 2.8
Inhibition rate (%) [3]: 4.4%
Mean fluorescence intensity [4]: 4.1

B5: 556F6B8 mouse-human chimeric antibody (antibody, V domains shown)
VH: RVQLKQSGPGLVQPSQSLSITCTVSGFSLIKYGVHWVRQSPGEGLEWLGVIWRGGITDYNAAFMSRLSITKDNSKSQVFFKMNSLQADDTAIYYCAKWDGPLAMDYWGQGTSVTVSS
VL: DIVMTQSHKFLSTSVGDRVSITCKASQDVGTTVAWYQQKPGQSPKLLIYWASTRHTGVPDRFTGSGSGTDFTLTISNVQSEDLADYFCQQYSSYPYTFGGGTKLEIK
notes: also called mAb123-556F6B8; 556F8B8
Mean fluorescence intensity [1]: 74.4
Mean fluorescence intensity [2]: 3.3
Inhibition rate (%) [3]: 21.5%
Mean fluorescence intensity [4]: 4.2
